# Measured values from patent US20160264649A1.
# Columns and labels:
# Assay in all cases: cell-based or functional assay
# [1] = molecular target: HIV-1 92RW008 Env (HIV-1)
# [2] = molecular target: HIV-1 Env of isolate 92WR009 (subtype A) (HIV-1)
# [3] = molecular target: HIV-1 Env of isolate 92WR020 (subtype A) (HIV-1)
# [4] = molecular target: HIV-1 Env of isolate 93WR029 (subtype A) (HIV-1)
# [5] = molecular target: HIV-1 Env of isolate 98CN009 (subtype CRF07_BC) (HIV-1)
# [6] = molecular target: HIV-1 Env of isolate 98IN022 (subtype C) (HIV-1)
# [7] = molecular target: HIV-1 Env of isolate APV_17 (subtype B) (HIV-1)
# [8] = molecular target: HIV-1 Env of isolate MG RM-C-025 (subtype C) (HIV-1)
# [9] = molecular target: HIV-1 Env of isolate MG RM-C-027 (subtype C) (HIV-1)
# [10] = molecular target: HIV-1 Env of isolate MG RM-C-028 (subtype C) (HIV-1)
# [11] = molecular target: HIV-1 Env of isolate MGRM-AE-001 (subtype AE) (HIV-1)
# [12] = molecular target: HIV-1 Env of isolate MGRM-AE-002 (subtype AE) (HIV-1)
# [13] = molecular target: HIV-1 Env of isolate MGRM-AE-005 (subtype AE) (HIV-1)
# [14] = molecular target: HIV-1 Env of isolate MGRM-AE-006 (subtype AE) (HIV-1)
# [15] = molecular target: HIV-1 Env of isolate MGRM-AE-007 (subtype AE) (HIV-1)
# [16] = molecular target: HIV-1 Env of isolate MGRM-AE-008 (subtype AE) (HIV-1)
# [17] = molecular target: HIV-1 Env of isolate MGRM-Chronic-B-002 (subtype B) (HIV-1)
# [18] = molecular target: HIV-1 Env of isolate MGRM-Chronic-B-004 (subtype B) (HIV-1)
# [19] = molecular target: HIV-1 Env of isolate MGRM-Chronic-B-008 (subtype B) (HIV-1)
# [20] = molecular target: HIV-1 Env of isolate MGRM-Chronic-B-010 (subtype B) (HIV-1)
# [21] = molecular target: HIV-1 Env of isolate MGRM-Chronic-B-012 (subtype B) (HIV-1)
# [22] = molecular target: HIV-1 Env of isolate MGRM-Chronic-B-018 (subtype B) (HIV-1)
# [23] = molecular target: HIV-1 Env of isolate MGRM-Chronic-B-023 (subtype B) (HIV-1)
# [24] = molecular target: HIV-1 Env of isolate MGRM-Chronic-B-024 (subtype B) (HIV-1)
# [25] = molecular target: HIV-1 Env of isolate MGRM-D-002 (subtype D) (HIV-1)
# [26] = molecular target: HIV-1 Env of isolate MGRM-D-003 (subtype D) (HIV-1)
# [27] = molecular target: HIV-1 Env of isolate MGRM-D-004 (subtype D) (HIV-1)
# [28] = molecular target: HIV-1 Env of isolate MGRM-D-008 (subtype D) (HIV-1)
# [29] = molecular target: HIV-1 Env of isolate MGRM-D-011 (subtype D) (HIV-1)
# [30] = molecular target: HIV-1 Env of isolate MGRM-D-013 (subtype D) (HIV-1)
# [31] = molecular target: HIV-1 Env of isolate MGRM-D-020 (subtype D) (HIV-1)
# [32] = molecular target: HIV-1 Env of isolate MGRM-F1-006 (subtype F) (HIV-1)
# [33] = molecular target: HIV-1 Env of isolate MGRM-F1-013 (subtype F) (HIV-1)
# [34] = molecular target: HIV-1 Env of isolate MGRM-F1-020 (subtype F) (HIV-1)
# [35] = molecular target: HIV-1 Env of isolate SC422661.8 (subtype B) (HIV-1)
# [36] = molecular target: HIV-1 Env of isolate THR0.18 (subtype B) (HIV-1)
# [37] = molecular target: HIV-1 Env of isolate TRJ04551.58 (subtype B) (HIV-1)
# [38] = molecular target: HIV-1 Env of isolate VLGCB3 (subtype B) (HIV-1)
# [39] = molecular target: HIV-1 Env of pseudovirus isolate MGRM-G-001 (subtype G) (HIV-1)
# [40] = molecular target: HIV-1 Env of pseudovirus isolate MGRM-G-009 (subtype G) (HIV-1)
# [41] = molecular target: HIV-1 Env of pseudovirus isolate MGRM-G-011 (subtype G) (HIV-1)
# [42] = molecular target: HIV-1 Env of pseudovirus isolate MGRM-G-014 (subtype G) (HIV-1)
# [43] = molecular target: HIV-1 Env of pseudovirus isolate MGRM-G-024 (subtype G) (HIV-1)
# [44] = molecular target: HIV-1 Env of pseudovirus isolate MGRM-G-027 (subtype G) (HIV-1)
# [45] = molecular target: HIV-1 Env of pseudovirus isolate MGRM-G-028 (subtype G) (HIV-1)
# [46] = molecular target: HIV-1 MGRM-F1-013 Env (HIV-1)
substance,measurement,setting,value
1496_C09 (PG9) (TCN-109) (antibody),IC50,[1],0.006 µg/mL
same,IC50 (pseudovirus neutralization),[2],0.05 µg/mL
same,IC50 (pseudovirus neutralization),[3],0.141 µg/mL
same,IC50 (pseudovirus neutralization),[4],0.69 µg/mL
same,IC50 (neutralization),[5],0.371 µg/mL
same,"IC50 (µg/mL), pseudovirus neutralization",[6],0.003 µg/mL
same,IC50,[7],34.8 µg/mL
same,"IC50 (µg/mL), pseudovirus neutralization",[8],0.148 µg/mL
same,"IC50 (µg/mL), pseudovirus neutralization",[9],5.36 µg/mL
same,"IC50 (µg/mL), pseudovirus neutralization",[10],0.067 µg/mL
same,IC50 (pseudovirus neutralization),[11],20.6 µg/mL
same,IC50 (pseudovirus neutralization),[12],0.04 µg/mL
same,IC50 (pseudovirus neutralization),[13],0.282 µg/mL
same,IC50 (pseudovirus neutralization),[14],0.063 µg/mL
same,IC50 (pseudovirus neutralization),[15],0.18 µg/mL
same,IC50 (pseudovirus neutralization),[16],31.5 µg/mL
same,IC50,[17],3.44 µg/mL
same,IC50,[18],0.533 µg/mL
same,IC50,[19],8.78 µg/mL
same,IC50,[20],0.004 µg/mL
same,IC50,[21],0.2 µg/mL
same,IC50,[22],0.216 µg/mL
same,IC50,[23],0.027 µg/mL
same,IC50,[24],0.222 µg/mL
same,IC50 (pseudovirus neutralization),[25],0.021 µg/mL
same,IC50 (pseudovirus neutralization),[26],0.033 µg/mL
same,IC50 (pseudovirus neutralization),[27],0.06 µg/mL
same,IC50 (pseudovirus neutralization),[28],11.5 µg/mL
same,IC50 (pseudovirus neutralization),[29],0.071 µg/mL
same,IC50 (pseudovirus neutralization),[30],0.021 µg/mL
same,IC50 (pseudovirus neutralization),[31],1.67 µg/mL
same,IC50 (pseudovirus neutralization),[32],7.25 µg/mL
same,IC50 (pseudovirus neutralization),[33],1.25 µg/mL
same,IC50 (pseudovirus neutralization),[34],6.4 µg/mL
same,IC50,[35],1.48 µg/mL
same,"IC50 (µg/mL), pseudovirus neutralization",[36],26.4 µg/mL
same,"IC50 (µg/mL), pseudovirus neutralization",[37],0.858 µg/mL
same,"IC50 (µg/mL), pseudovirus neutralization",[38],0.022 µg/mL
same,IC50,[39],0.166 µg/mL
same,IC50,[40],10.7 µg/mL
same,IC50,[41],0.335 µg/mL
same,IC50,[42],16.5 µg/mL
same,IC50,[43],0.163 µg/mL
same,IC50,[44],0.007 µg/mL
same,IC50,[45],0.891 µg/mL
same,IC50 (pseudovirus neutralization),[46],0.56 µg/mL
2F5 (antibody),IC50 (pseudovirus neutralization),[46],4.57 µg/mL
VRC01 (antibody),IC50,[1],0.037 µg/mL
same,IC50 (pseudovirus neutralization),[2],0.187 µg/mL
same,IC50 (pseudovirus neutralization),[3],0.13 µg/mL
same,IC50 (pseudovirus neutralization),[4],1.57 µg/mL
same,IC50 (neutralization),[5],0.346 µg/mL
same,IC50,[6],0.342 µg/mL
same,IC50,[7],0.477 µg/mL
same,IC50,[8],2.36 µg/mL
same,IC50,[9],0.125 µg/mL
same,IC50,[10],0.319 µg/mL
same,IC50 (pseudovirus neutralization),[11],0.167 µg/mL
same,IC50 (pseudovirus neutralization),[12],0.217 µg/mL
same,IC50 (pseudovirus neutralization),[13],0.029 µg/mL
same,IC50 (pseudovirus neutralization),[14],4.65 µg/mL
same,IC50 (pseudovirus neutralization),[15],0.835 µg/mL
same,IC50 (pseudovirus neutralization),[16],1.72 µg/mL
same,IC50,[17],0.117 µg/mL
same,IC50,[18],0.055 µg/mL
same,IC50,[19],0.155 µg/mL
same,IC50,[20],0.156 µg/mL
same,IC50,[21],1.03 µg/mL
same,IC50,[22],0.328 µg/mL
same,IC50,[23],0.275 µg/mL
same,IC50,[24],0.377 µg/mL
same,IC50 (pseudovirus neutralization),[25],0.252 µg/mL
same,IC50 (pseudovirus neutralization),[26],2.06 µg/mL
same,IC50 (pseudovirus neutralization),[27],1.25 µg/mL
same,IC50 (pseudovirus neutralization),[28],0.854 µg/mL
same,IC50 (pseudovirus neutralization),[29],0.075 µg/mL
same,IC50 (pseudovirus neutralization),[30],0.087 µg/mL
same,IC50 (pseudovirus neutralization),[31],0.192 µg/mL
same,IC50 (pseudovirus neutralization),[32],2.86 µg/mL
same,IC50 (pseudovirus neutralization),[33],0.17 µg/mL
same,IC50 (pseudovirus neutralization),[34],1.89 µg/mL
same,IC50,[35],0.179 µg/mL
same,IC50,[36],2.46 µg/mL
same,IC50,[37],0.06 µg/mL
same,IC50,[38],0.108 µg/mL
same,IC50,[39],0.0371 µg/mL
same,IC50,[40],0.073 µg/mL
same,IC50,[41],0.065 µg/mL
same,IC50,[42],0.056 µg/mL
same,IC50,[43],0.025 µg/mL
same,IC50,[44],0.36 µg/mL
same,IC50,[45],0.164 µg/mL
2G12 (antibody),IC50 (pseudovirus neutralization),[46],> 50 µg/mL
b12 (antibody),IC50 (pseudovirus neutralization),[46],> 50 µg/mL
1495_C14 (PGC14) (antibody),IC50 (pseudovirus neutralization),[46],6 µg/mL
PGV04 (antibody),IC50,[1],0.014 µg/mL
same,IC50 (pseudovirus neutralization),[2],0.108 µg/mL
same,IC50 (pseudovirus neutralization),[3],0.055 µg/mL
same,IC50 (pseudovirus neutralization),[4],0.54 µg/mL
same,IC50 (neutralization),[5],0.0125 µg/mL
same,"IC50 (µg/mL), pseudovirus neutralization",[6],5.69 µg/mL
same,IC50,[7],0.309 µg/mL
same,"IC50 (µg/mL), pseudovirus neutralization",[8],> 50 µg/mL
same,"IC50 (µg/mL), pseudovirus neutralization",[9],2.76 µg/mL
same,"IC50 (µg/mL), pseudovirus neutralization",[10],0.149 µg/mL
same,IC50 (pseudovirus neutralization),[11],0.063 µg/mL
same,IC50 (pseudovirus neutralization),[12],0.569 µg/mL
same,IC50 (pseudovirus neutralization),[13],0.051 µg/mL
same,IC50 (pseudovirus neutralization),[14],> 50 µg/mL
same,IC50 (pseudovirus neutralization),[15],5.75 µg/mL
same,IC50 (pseudovirus neutralization),[16],1.51 µg/mL
same,IC50,[17],0.142 µg/mL
same,IC50,[18],0.047 µg/mL
same,IC50,[19],0.166 µg/mL
same,IC50,[20],0.744 µg/mL
same,IC50,[21],> 50 µg/mL
same,IC50,[22],0.164 µg/mL
same,IC50,[23],0.139 µg/mL
same,IC50,[24],2.52 µg/mL
same,IC50 (pseudovirus neutralization),[25],0.322 µg/mL
same,IC50 (pseudovirus neutralization),[26],> 50 µg/mL
same,IC50 (pseudovirus neutralization),[27],43.2 µg/mL
same,IC50 (pseudovirus neutralization),[28],3.56 µg/mL
same,IC50 (pseudovirus neutralization),[29],0.025 µg/mL
same,IC50 (pseudovirus neutralization),[30],0.088 µg/mL
same,IC50 (pseudovirus neutralization),[31],0.097 µg/mL
same,IC50 (pseudovirus neutralization),[32],> 50 µg/mL
same,IC50 (pseudovirus neutralization),[33],0.084 µg/mL
same,IC50 (pseudovirus neutralization),[34],5.99 µg/mL
same,IC50,[35],0.11 µg/mL
same,"IC50 (µg/mL), pseudovirus neutralization",[36],> 50 µg/mL
same,"IC50 (µg/mL), pseudovirus neutralization",[37],0.028 µg/mL
same,"IC50 (µg/mL), pseudovirus neutralization",[38],0.045 µg/mL
same,IC50,[39],> 50 µg/mL
same,IC50,[40],0.043 µg/mL
same,IC50,[41],0.78 µg/mL
same,IC50,[42],0.056 µg/mL
same,IC50,[43],0.033 µg/mL
same,IC50,[44],0.125 µg/mL
same,IC50,[45],0.352 µg/mL
